Assay [1] deals with 山羊IgG (山羊 (goat)). As to the kind of experiment: indirect ELISA, IgG coated at 1 ug/mL, HRP goat anti-mouse IgG detection, OD450. Particulars: scale: reciprocal dilution. On the technique in general: ELISA stands for enzyme-linked immunosorbent assay.
The target of assay [2] is 牛IgG (牛 (bovine)). The description is as above. The note with it: scale: reciprocal dilution.
For assay [3], the target named is 绵羊IgG (绵羊 (sheep)). The description is as above. The note with it: scale: reciprocal dilution.
For assay [4], the target named is 山羊IgG (山羊 (goat)). As to the kind of experiment: direct magnetic-particle chemiluminescence, IgG on magnetic particles, HRP-labelled 4C-1 at 1:4000.
Assay [5] addresses 牛IgG (牛 (bovine)). The assay is described as above.
Assay [6] addresses 绵羊IgG (绵羊 (sheep)). The assay is described as above.

B1: 鼠单克隆抗体 二抗4C-1 (antibody, part only; not given: Light chain variable domain, V domains shown, part only)
VH: QVQLKQSGPELVKPGASVKMSCKASGYTFTSYVIHWVKQKPGQGLEWIGYINPYNDNTEYNEKFKGKATLTSDKSSSTAYMELSSLTSEDSAVYYCARREGGYYVFTYWGQGTLVTVSA
As to B1, the 效价 (titer) in the assay with 山羊IgG (山羊 (goat)) [1], in the assay with 牛IgG (牛 (bovine)) [2] and in the assay with 绵羊IgG (绵羊 (sheep)) [3] was above 256000 in each case. The 发光值 (luminescence value) with 山羊IgG (山羊 (goat)) [4], with 牛IgG (牛 (bovine)) [5] and with 绵羊IgG (绵羊 (sheep)) [6] was > 100000 发光值 in each case.

The values above are taken from CN114805589A.
